Assay [1] deals with T1, TGFβ3 (R&D Systems) (Homo sapiens (Human), UniProt P10600 301-412, Active TGFβ3 is a disulfide-linked homodimer of this chain; one copy is given.).
T1 construct: also called TGFB3
T1 sequence: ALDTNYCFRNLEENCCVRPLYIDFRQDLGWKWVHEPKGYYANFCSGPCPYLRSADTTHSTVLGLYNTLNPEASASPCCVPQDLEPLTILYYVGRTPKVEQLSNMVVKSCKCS
Put plainly: SPR.

Assay [2] deals with T2, TGFβ1 (R&D Systems).
T2 construct: also called TGFB1
The assay can be described thus: single point SPR.

The target in assay [3] is T2, TGFβ1 (R&D Systems). The assay can be described thus: SPR full titration.
The target in assay [4] is T2, TGFβ1 (R&D Systems). Put plainly: cell-based or functional assay.
Assay [5] concerns the target T2, TGFβ1 (R&D Systems). The assay can be described thus: SPR full titration. The source holds these as a separate data set.
The target of assay [6] is T3, TGFβ2 (R&D Systems).
T3 construct: also called TGFB2
T3 sequence (P61812 303-414, species assumed, looked up): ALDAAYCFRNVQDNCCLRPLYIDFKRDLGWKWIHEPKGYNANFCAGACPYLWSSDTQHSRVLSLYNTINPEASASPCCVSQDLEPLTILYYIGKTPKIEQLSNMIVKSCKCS
Put plainly: SPR full titration.

For assay [7], the target named is T1, TGFβ3 (R&D Systems). Put plainly: SPR full titration.
The target in assay [8] is T2, TGFβ1 (R&D Systems). Put plainly: cell-based or functional assay. This is another data set of the same source.
Assay [9] has as its target T3, TGFβ2 (R&D Systems). The assay can be described thus: cell-based or functional assay.
Assay [10] concerns the target T1, TGFβ3 (R&D Systems). Put plainly: cell-based or functional assay.

Substitutions are numbered along the chain they refer to. In names and notes the source's numbering stands.

T2 sequence (P01137 279-390): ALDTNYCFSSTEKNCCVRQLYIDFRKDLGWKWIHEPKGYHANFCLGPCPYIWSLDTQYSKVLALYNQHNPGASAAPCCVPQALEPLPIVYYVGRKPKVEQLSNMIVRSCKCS

B1: felHclb_heterochimera-14 (antibody, V domains shown)
VH: QVLLVQSGAEVRTPGASVKIFCKASGYIFITYYMHWVRQSPAQGLEWMGQIFPASGSTNYNEMFEGRLTLTADTSTNTAYMELSSLRSADTAMYYCARGDGNYALDAMDYWGQGTSVTVSS
VL: DIVLTQTPASLAVSLGQRATISCRASESVDSYGNSFMHWYQQKSGQPPKLLIYLASNLESGVPARFSGSGSRTDFTLTIDPVEADDAATYYCQQNNEDPLTFGAGTK
notes: hetero-pairing; also called felHclbH1-1x/mHclbVL
Turning to B1, the binding result in [1] is reported as “no binding”.

B2: felHclb_heterochimera-15 (antibody, V domains shown)
VH: QVLLVQSGAEVRKPGASVKIFCKASGYTFITYYMHWLRQAPEQGLEWMGRIFPASGSTSYAQKFQGRLTLTADTSTNTAYMELSSLRSADTAMYYCARGDGNYALDAMDYWGQGALVTVSS
VL: B1 VL
notes: hetero-pairing; also called felHclbH618s/mHclbVL
In the case of B2, the binding result in assay [1] is given as “no binding”.

B3: felHclb_heterochimera-16 (antibody, V domains shown)
VH: B2 VH with R50Q, S59N, A61N, Q62E, K63M, Q65E
VL: B1 VL
notes: hetero-pairing; also called felHclbH618x/mHclbVL
Regarding B3, the binding result in assay [1] is recorded as “no binding”.

B4: felHclb_heterochimera-12 (antibody, V domains shown)
VH: B1 VH with Q50S, N59S, N61A, E62Q, M63K, E65Q
VL: B1 VL
notes: hetero-pairing; also called felHclbH1-1/mHclbVL
Consider B4, for which the binding result in [1] is recorded as “no binding”.

B5: felHclb_heterochimera-13 (antibody, V domains shown)
VH: B1 VH with T13R, V37L, S40A, L45F, N77D, M93V, Q113H, S116I
VL: B1 VL
notes: hetero-pairing; also called felHclbH636x/mHclbVL
For B5, in [1], the binding result is listed as “no binding”.

B6: Can-SL501-VH3 D108K / Can-SL501-VL2 (antibody, V domains shown)
VH: EVQLVESGGDLVKPGGSLRLSCVASGFTFSSYGMHWVRQAPGKELEWVAVISYDGSIKYYADAVKGRFTISRDNAKNTLYLQMNSLRAEDTAVYYCARTGEYSGYDTKPQYSWGQGTTVTVSS
VL: EIVMTQSPGSLAGSAGESVSINCRASQGIGDDLGWYQQKPGERPKLLIYGTSTLQSGVPARFSSSGSGTDFTLTINNLQAEDVGDYYCLQDSNYPLTFGAGTK
For B6, the Kd in assay [2] was 283 pM; in [3], 34.6 pM. In addition, the “CMVIC pSmad-3, IC50” value in assay [4] came out at 10.9 nM.

B7: Can-SL501-VH3 Y111E / Can-SL501-VL2 (antibody, V domains shown)
VH: B6 VH with K108D, Y111E
VL: B6 VL
In the case of B7, the Kd in [2] is 4980 pM; in assay [3], 23.8 pM. Further, in assay [4], the “CMVIC pSmad-3, IC50” value came out at 46.9 nM.

B8: Can-SL501-VH3 Y111T / Can-SL501-VL2 (antibody, V domains shown)
VH: B6 VH with K108D, Y111T
VL: B6 VL
B8: the results for the Kd in [2] and in assay [3] were 457 pM and 23.5 pM, respectively. In addition, in assay [4], the “CMVIC pSmad-3, IC50” value was 19.6 nM.

B9: Can-SL501-VH3 P109A / Can-SL501-VL2 (antibody, V domains shown)
VH: B6 VH with K108D, P109A
VL: B6 VL
With B9, the dissociation constant (Kd) in [2] amounted to 1100 pM; in assay [3], 135 pM. Further, in assay [4], the “CMVIC pSmad-3, IC50” value is 20.8 nM.

B10: Can-SL501-VH3 S112Q / Can-SL501-VL2 (antibody, V domains shown)
VH: B6 VH with K108D, S112Q
VL: B6 VL
For B10, the results for the Kd in [2] and in assay [3] were 4800 pM and 9.09 pM, respectively. For the same molecule, the “CMVIC pSmad-3, IC50” value in assay [4] worked out at 5.02 nM.

B11: Can-SL501-VH3 Q110K / Can-SL501-VL2 (antibody, V domains shown)
VH: B6 VH with K108D, Q110K
VL: B6 VL
With B11, the results for the Kd in assay [2] and in assay [3] were 5110 pM and 111 pM, respectively. Moreover, in [4], the “CMVIC pSmad-3, IC50” value was 30.5 nM.

B12: Can-SL501-VH3 Y111F / Can-SL501-VL2 (antibody, V domains shown)
VH: B6 VH with K108D, Y111F
VL: B6 VL
For B12, the values for the Kd in [2] and in assay [3] were 8040 pM and 65 pM, respectively. The “CMVIC pSmad-3, IC50” value in assay [4] is 43.3 nM.

B13: Can-SL501-VH3 P109T / Can-SL501-VL2 (antibody, V domains shown)
VH: B6 VH with K108D, P109T
VL: B6 VL
On to B13, for which the Kd amounted to 752 pM in assay [2] and 83.6 pM in assay [3]. Moreover, the “CMVIC pSmad-3, IC50” value in assay [4] was 30 nM.

B14: Can-SL501-VH3 D108R / Can-SL501-VL2 (antibody, V domains shown)
VH: B6 VH with K108R
VL: B6 VL
On to B14, for which the Kd in assay [2] came out at 759 pM; in assay [3] it was 65.1 pM. Also, in assay [4], the “CMVIC pSmad-3, IC50” value was 25.2 nM.

B15: Can-SL501-VH3 Q110D / Can-SL501-VL2 (antibody, V domains shown)
VH: B6 VH with K108D, Q110D
VL: B6 VL
As to B15, the Kd in assay [2] turned out to be 8010 pM; in assay [3], 50.3 pM. Besides, in assay [4], the “CMVIC pSmad-3, IC50” value worked out at 4.83 nM.

B16: Can-SL501-VH3 S112D / Can-SL501-VL2 (antibody, V domains shown)
VH: B6 VH with K108D, S112D
VL: B6 VL
Turning to B16, the Kd in assay [2] was determined as 7000 pM; in [3], 19.6 pM. In assay [4], the “CMVIC pSmad-3, IC50” value is 8.78 nM.

B17: Can-SL501-VH3 Q110N / Can-SL501-VL2 (antibody, V domains shown)
VH: B6 VH with K108D, Q110N
VL: B6 VL
As for B17, the Kd came to 5640 pM in assay [2] and 80.9 pM in assay [3]. Besides, the “CMVIC pSmad-3, IC50” value in assay [4] amounted to 8.95 nM.

B18: Can-SL501-VH3 Y111L / Can-SL501-VL2 (antibody, V domains shown)
VH: B6 VH with K108D, Y111L
VL: B6 VL
B18 came in with a Kd in [2] of 1110 pM. The “CMVIC pSmad-3, IC50” value in assay [4] was determined as 32.6 nM.

B19: Can-SL501-VH3 Y111I / Can-SL501-VL2 (antibody, V domains shown)
VH: B6 VH with K108D, Y111I
VL: B6 VL
On to B19, for which the results for the Kd in [2] and in assay [3] were 562 pM and 30.8 pM, respectively. For the same molecule, the “CMVIC pSmad-3, IC50” value in assay [4] came out at 50.2 nM.

B20: Can-SL501-VH3 S112E / Can-SL501-VL2 (antibody, V domains shown)
VH: B6 VH with K108D, S112E
VL: B6 VL
As to B20, the Kd in [2] was 487 pM; in [3], 15.3 pM. For the same molecule, in [4], the “CMVIC pSmad-3, IC50” value came out at 5.03 nM.

B21: Can-SL501-VH3 Q110E / Can-SL501-VL2 (antibody, V domains shown)
VH: B6 VH with K108D, Q110E
VL: B6 VL
On to B21, for which the Kd in assay [2] was 13500 pM; in [3], 65.7 pM. Also, the “CMVIC pSmad-3, IC50” value in [4] was found to be 6.65 nM.

B22: affinity matured HcLb 263 (antibody, V domains shown)
VH: EVQLVQSGAEVKKPGASVKVSCKTSGYIFITYWMNWVRQAPGAGLDWMGQIFPAWGSTNYNEMFEGRVTLTADTSTSTAYMELSSLRAGDIAVYYCARGYGNYALDAMDYWGQGTLVTVSS
VL: DIVMTQTPPSLSVSPRETASISCRASESVDSYGNSFMHWYLQKPGQSPQLLIYLASNLESGVSDRFSGSGSGTDFTLRISRVEANDTGVYYCQQNNEDPLTFGQ
notes: full IgG; constant regions not restated
As for B22, the Kd in [5] turned out to be 3760 pM; in [6], 2910 pM; in assay [7] it was 370 pM. Also, the figures for the “pSmad-3, IC50” value in [8], in assay [9] and in assay [10] were 1.41 nM, 2.1 nM and 1.03 nM, respectively.

B23: felHclb_heterochimera-5 (antibody, V domains shown)
VH: B2 VH
VL: B22 VL
notes: hetero-pairing
B23: in [1], the binding result was “no binding”.

B24: felHclb_heterochimera-1 (antibody, V domains shown)
VH: B2 VH with K13R, T28I, E42A, L45F, R50S, N77D, M93V, Q113H, A115T, L116I
VL: B22 VL
notes: hetero-pairing
With B24, the binding result in assay [1] is listed as “no binding”.

B25: felHclb_heterochimera-4 (antibody, V domains shown)
VH: B1 VH
VL: B22 VL
notes: hetero-pairing
Turning to B25, the binding result in [1] is on record as “no binding”.

B26: affinity matured HcLb 260 (antibody, V domains shown)
VH: SEVQLVQSGAEVKKPGASVKVSCKTSGYTFITYWMNWVRQAPGAGLDWMGQIFPAWGVTNYNEMFEGRVTLTADTSTSTAYMELSSLRAGDIAVYYCARGYGNYALDAMDYWGQGTLVTVSS
VL: B22 VL
notes: as for B22
With B26, the Kd in assay [5] came out at 3790 pM; in [6], 4360 pM; in [7], 790 pM. Further, the “pSmad-3, IC50” value in assay [8] came out at 1.33 nM; in [9] it was 1.64 nM; in assay [10] it was 1.24 nM.

B27: felHclb_heterochimera-2 (antibody, V domains shown)
VH: B1 VH with Q50S, N59S, N61A, E62Q, M63K, E65Q
VL: B22 VL
notes: hetero-pairing
B27: the binding result in assay [1] is on record as “no binding”.

The values above are taken from US20220119513A1 (ZOETIS SERVICES, published 2022).
